We go through 167 variants from the RNAGym collection of RNA variant scans (doi:10.7554/elife.90254).

B1: LINE1-full (parent)
chain: UACGUAGGUGGUUUUCCCCUGAUAGUGCUAAGGGGGCCUGGAAGUUUGGACUGGGCAGAGCUCAACACAGCGUGGCAAAGUGGCUGUGGCUAGACUGCCUCUCUGGAUUCCUCGUCACUCAGCAGGGCAUCUCUGAGAGAAAUGCC

Variants of B1 are the subject of this data set. The data set is described as follows: self-cleavage, relative activity (ratio to wild type); higher = more cleavage; in vitro, sequencing; the parent is a self-cleaving ribozyme.
As to C56U U96A, the self-cleavage is 0.03.
The value for G58A U96C was 0.04; that for G53U A69U was 0.01; that for A57G A78U was 1.62.
The value for A57G C128G was 0.55; that for G55A U73A was 0.12; that for A57U G114A was 0.07.
As for G54A A121U, the figure is 0.85.
In the case of A59G G86A, the self-cleavage stood at 0.07.
For A59G G86U, the self-cleavage amounted to 0.03.
Take A59G A136G: the self-cleavage is 0.07.
As for A59G A124U, the figure is 0.14; as for G55U, 0.19.
As for G55C, the figure is 0.08.
As for G55A, the figure is 0.19.
As to A57U A136G, the self-cleavage amounted to 0.11.
The value for C56U U119C was 0.21; that for A57G C120A was 0.93.
The value for G58U G137U was 0.03.
The value for G58U A117G was 0.01; that for G58A A117U was 0.05; that for G58A A117C was 0.1.
As for C56U A57G, the self-cleavage is 0.04.
The value for G53U U87A was 0.05.
Consider G55C G72A, for which the self-cleavage was determined as 0.08.
The value for A57G C61U was 0.05.
With A57U A129U, the self-cleavage was found to be 0.11.
Consider A59G A77G, for which the self-cleavage turned out to be 0.15.
The value for A57G U132C was 0.86; that for A57G U132A was 1.29; that for A57G U132G was 0.62.
In the case of C56U G74A, the self-cleavage stood at 0.09.
A59C C131A: the self-cleavage was determined as 1.15.
The value for A57U U112C was 0.01.
A57G A138C: the self-cleavage was determined as 1.13.
The value for C56U A59G was 0.05; that for A57G A65C was 0.05; that for A57G A136G was 1.33.
As for C56A, the figure is 0.05.
As for C56U, the figure is 0.11; as for C56G, 0.07; as for G54A G125U, 0.69.
G54A A69C: the self-cleavage worked out at 0.04.
With G55U A142G, the self-cleavage is 0.11.
As for G53U A94G, the figure is 0.2.
Regarding G55A A92G, the self-cleavage was found to be 0.03.
Turning to A59G A138U, the self-cleavage amounted to 0.12.
As for G55A U109C, the figure is 0.1; as for C56U U109C, 0.03; as for A57U A94U, 0.04.
As for A57U A94G, the figure is 0.14; as for A57G U108C, 1.48; as for G58A A136G, 0.05.
A57C G97U: the self-cleavage was 0.04.
As for G58A U115C, the figure is 0.06; as for G58A U115A, 0.1.
Turning to G54U U115A, the self-cleavage amounted to 0.74.
Regarding A59G C133U, the self-cleavage was determined as 0.08.
As for A59G C133A, the figure is 0.04; as for G55A U102C, 0.17; as for A57G C116U, 0.71.
As for G55A A65G, the figure is 0.03.
The value for A57G U104A was 0.3.
As for A57G A64U, the self-cleavage was found to be 0.3.
The value for A57G A64G was 0.3; that for A57U U91C was 0.04; that for A57U U91A was 0.07.
Take C56U A77U: the self-cleavage stood at 0.11.
As for G55A C110U, the figure is 0.53; as for A57G C68A, 0.06.
As for G58U A129G, the figure is 0.05; as for A57C U81G, 0.16.
Take A57C U81C: the self-cleavage came to 0.04.
As for A57G A77U, the self-cleavage amounted to 0.58.
Turning to A57G A77G, the self-cleavage is 1.68.
In the case of A57C G127A, the self-cleavage was determined as 0.03.
As for A59G A142G, the figure is 0.07; as for G55A U85C, 0.06.
On to G55A U115C, for which the self-cleavage was found to be 0.63.
As for G55A U115A, the self-cleavage is 0.21.
As for A57G A79G, the self-cleavage worked out at 1.32.
The value for A57G A79C was 0.8; that for G58U G114A was 0.03; that for A59G A92G was 0.04.
The value for G58U U130C was 0.05.
For A57U C145U, the self-cleavage is 0.08.
The value for G55C U87C was 0.37.
As for C56G A129C, the figure is 0.08; as for G54A A57C, 0.07.
The value for G55A C131G was 0.35; that for A57C U143A was 0.22; that for G55C A65G was 0.06.
In the case of G54U A117G, the self-cleavage came out at 0.52.
In the case of A57G G126U, the self-cleavage was found to be 0.65.
For G55A A142G, the self-cleavage was 0.27.
As for G54A A140G, the figure is 0.73; as for C56G A77G, 0.04.
Regarding A59G C146U, the self-cleavage came out at 0.12.
As for G58A A138G, the figure is 0.04; as for G58A C110U, 0.05; as for A57U G83U, 0.02.
Regarding A57U U130A, the self-cleavage was 0.15.
As for A57U U130C, the self-cleavage stood at 0.13.
As for G55U C113U, the figure is 0.07; as for A57U U109C, 0.03; as for A57U A92G, 0.07.
The value for A57U A92U was 0.07; that for G55A A64G was 0.
The value for G58U A59G was 0.06; that for C56U A129U was 0.23.
As for G58A U132C, the self-cleavage was determined as 0.05.
In the case of A59G A79G, the self-cleavage came out at 0.07.
Turning to A59G C76A, the self-cleavage is 0.08.
As for A57U U102C, the figure is 0.13.
Consider C56U A78G, for which the self-cleavage was determined as 0.06.
In the case of C56U A78U, the self-cleavage was 0.15.
The value for A59G G82A was 0.02; that for C56G A79G was 0.1.
With A59G A94U, the self-cleavage was determined as 0.07.
Regarding A59G A94G, the self-cleavage is 0.23.
As for A57G G86A, the figure is 0.05; as for G53U U91C, 0.54; as for G55A G125C, 0.15.
As for A59C U108C, the figure is 1.28.
In the case of A57G A129C, the self-cleavage was 1.33.
As for G55C U73A, the figure is 0.07; as for G54A U119A, 0.55.
As to A59C U130C, the self-cleavage came out at 0.8.
As for A57U G60A, the figure is 0.04.
On to A57U G60C, for which the self-cleavage is 0.05.
Regarding A57U U115A, the self-cleavage came to 0.09.
The value for G54A U115G was 1.02.
Regarding G54A U115C, the self-cleavage amounted to 1.27.
As for G58C, the figure is 0.03; as for G58A, 0.05; as for G58U, 0.05.
On to A59G C95U, for which the self-cleavage came out at 0.14.
As for A57U G139U, the figure is 0.11.
The value for C56U U130C was 0; that for C56U U73C was 0.25; that for C56U U73A was 0.08.
As for G54A C145U, the figure is 0.54.
Regarding A57G U143C, the self-cleavage turned out to be 0.81.
Turning to A57G U143A, the self-cleavage stood at 0.84.
C56U U132C: the self-cleavage stood at 0.2.
The value for G53U U81C was 2.
The value for A57C A141G was 0.11.
As for A57G U96C, the figure is 1.37; as for A57G U96A, 0.05.
Turning to G54C, the self-cleavage amounted to 0.86.
Turning to G54U, the self-cleavage stood at 0.67.
With G54A, the self-cleavage turned out to be 0.61.
As to G58U U115C, the self-cleavage was determined as 0.04.
The value for A57U U132C was 0.14; that for G55A U96A was 0.05; that for G55A U96C was 0.04.
With A59G A78G, the self-cleavage was determined as 0.06.
Consider G55C A129U, for which the self-cleavage is 0.09.
The value for G54A U104A was 0.18; that for G54A U104C was 0.44; that for A57U U100A was 0.03.
As for A57U A77G, the self-cleavage was found to be 0.17.
With A59G A69G, the self-cleavage stood at 0.1.
As for G58U A141G, the figure is 0.04; as for A57G A92G, 0.14; as for A57G A92U, 0.3.
As for G55U U102C, the figure is 0.06.
